These results are taken from patent US20190071499A1 (published 2019).

The target in assay [1] is T1, human Fc fusion mouse IFN-α4 (mouse, UniProt P07351 25-186).
T1 construct: bought (SinoBiological); also called murine IFN-α4; not shown: human Fc
T1 sequence (looked up): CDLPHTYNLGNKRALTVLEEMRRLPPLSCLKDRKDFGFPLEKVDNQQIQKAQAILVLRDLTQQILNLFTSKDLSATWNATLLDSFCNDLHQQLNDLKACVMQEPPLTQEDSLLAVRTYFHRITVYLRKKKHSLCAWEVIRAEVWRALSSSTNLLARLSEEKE
In words: ELISA, human Fc fusion mouse IFN-α.

Assay [2] concerns the target T2, human Fc fusion mouse IFN-α2 (mouse, UniProt P01573 24-190).
T2 construct: bought (SinoBiological); also called murine IFN-α2; murine INFA2; not shown: human Fc
T2 sequence (looked up): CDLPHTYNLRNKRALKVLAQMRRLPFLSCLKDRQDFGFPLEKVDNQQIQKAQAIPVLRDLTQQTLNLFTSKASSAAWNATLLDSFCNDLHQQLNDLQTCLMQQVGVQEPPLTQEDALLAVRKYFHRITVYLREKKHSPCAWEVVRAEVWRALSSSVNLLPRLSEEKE
Put plainly: ELISA, human Fc fusion mouse IFN-α.

A further assay addresses T3, g1mIFN-α1 (mouse, UniProt P01572 24-189).
T3 construct: also called murine IFN-α1 (Gaussia luciferase fusion); not shown: Gaussia luciferase fusion partner
T3 sequence (looked up): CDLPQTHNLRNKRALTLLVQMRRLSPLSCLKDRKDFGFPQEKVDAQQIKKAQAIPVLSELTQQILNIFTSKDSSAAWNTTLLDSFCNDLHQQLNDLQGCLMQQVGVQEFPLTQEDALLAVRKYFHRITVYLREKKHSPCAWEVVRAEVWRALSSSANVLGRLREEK
In words: LIPS.

A further assay has as its target T4, g1mIFN-α9 (mouse, UniProt P09235 24-190).
T4 construct: also called murine IFN-α9 (Gaussia luciferase fusion); not shown: Gaussia luciferase fusion partner
T4 sequence (looked up): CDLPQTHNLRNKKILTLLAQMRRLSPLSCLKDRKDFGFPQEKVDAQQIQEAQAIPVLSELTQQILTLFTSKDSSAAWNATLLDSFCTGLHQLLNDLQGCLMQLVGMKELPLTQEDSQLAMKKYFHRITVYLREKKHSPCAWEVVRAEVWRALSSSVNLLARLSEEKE
In words: LIPS.

A further assay concerns the target T5, g1 IFN-α10 (human, UniProt P01566 24-189).
T5 construct: in-house fusion; also called IFN-α10-Gaussia luciferase fusion protein; not shown: Gaussia luciferase (naturally secreted), N-terminal fusion partner
Put plainly: LIPS, IFN-Gaussia luciferase fusion proteins.

The target in assay [3] is T6, human IFN-α1 (human, UniProt P0DY56 24-189).
T6 construct: commercial recombinant protein; also called IFN-alpha 1beta; IFN-α1/13
T6 sequence (P0DY56 entry or part of it limits assumed): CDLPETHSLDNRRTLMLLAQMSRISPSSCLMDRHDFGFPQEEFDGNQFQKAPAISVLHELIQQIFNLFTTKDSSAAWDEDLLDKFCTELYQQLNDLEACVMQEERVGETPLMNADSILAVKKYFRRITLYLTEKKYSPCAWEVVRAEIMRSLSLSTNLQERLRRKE
In words: ELISA or LIPS (Table 7 summary). A general note: An ELISA detects its analyte on a solid surface through an enzyme-linked reagent.

The target of a further assay is T7, human IFN-α14 (human, UniProt P01570 24-189).
T7 construct: commercial recombinant protein; also called rhIFN-α14; IFN-α14 (ATGen)
T7 sequence (P01570 24-189 limits assumed): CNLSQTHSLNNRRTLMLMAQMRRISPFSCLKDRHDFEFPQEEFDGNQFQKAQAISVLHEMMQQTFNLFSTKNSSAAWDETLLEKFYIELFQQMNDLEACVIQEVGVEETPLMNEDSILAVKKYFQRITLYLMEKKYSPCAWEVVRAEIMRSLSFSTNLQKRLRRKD
In words: ELISA or LIPS (Table 7 summary).

The target in another assay is T8, human IFN-α4 (human, UniProt P05014 24-189).
T8 construct: commercial recombinant protein; also called rhIFN-α4; IFN-α4 (SinoBiological)
T8 sequence (P05014 24-189 limits assumed): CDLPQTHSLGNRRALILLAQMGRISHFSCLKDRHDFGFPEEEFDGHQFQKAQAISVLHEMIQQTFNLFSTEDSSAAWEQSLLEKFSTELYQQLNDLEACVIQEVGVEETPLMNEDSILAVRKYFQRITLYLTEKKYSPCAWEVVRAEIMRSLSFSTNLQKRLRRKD
In words: ELISA or LIPS (Table 7 summary).

A further assay has as its target T9, human IFN-α16 (human, UniProt P05015 24-189).
T9 construct: recombinant protein; also called rhIFN-α16
Put plainly: ELISA or LIPS (Table 7 summary).

A further assay has as its target T10, human IFN-α10 (human, UniProt P01566 24-189).
T10 construct: recombinant protein; also called rhIFN-α10
In words: ELISA or LIPS (Table 7 summary).

The target of another assay is T11, human IFN-α21 (human, UniProt P01568 24-189).
T11 construct: commercial recombinant protein; also called rhIFN-α21; IFN-α21 (PBL)
T11 sequence (P01568 24-189 limits assumed): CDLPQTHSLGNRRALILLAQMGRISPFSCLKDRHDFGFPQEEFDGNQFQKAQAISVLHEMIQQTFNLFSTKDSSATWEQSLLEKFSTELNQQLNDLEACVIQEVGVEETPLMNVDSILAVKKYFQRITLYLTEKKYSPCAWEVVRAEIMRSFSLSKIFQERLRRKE
Put plainly: ELISA or LIPS (Table 7 summary).

In assay [4] the target is T6, human IFN-α1. In words: ELISA or LIPS (Table 7 summary; ELISA at 300 ng/ml MAB in paragraph 311).
Procedure: In this experiment, examined MABs (300 ng/ml) were incubated for 2 hours with antigen-coated plates (coating overnight at 1 μg/ml in PBS, followed by wash out and blocking with 2% BSA in PBS). The plates were subsequently washed and binding of MABs was detected with anti-human HRP-conjugated secondary antibody.

T10 sequence (P01566 24-189 limits assumed): as the sequence (P05014 24-189 limits assumed) above, with A19G, H26P, G37R, F38I, E40Q, H46N, T132I, K134R counted along it
T9 sequence (P05015 24-189 limits assumed): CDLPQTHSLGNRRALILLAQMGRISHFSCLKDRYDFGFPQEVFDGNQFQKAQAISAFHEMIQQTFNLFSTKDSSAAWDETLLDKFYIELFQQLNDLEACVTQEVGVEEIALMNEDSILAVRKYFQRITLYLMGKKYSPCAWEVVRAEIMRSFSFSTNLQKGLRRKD
T5 sequence (P01566 24-189): as the sequence (P05014 24-189 limits assumed) above, with A19G, H26P, G37R, F38I, E40Q, H46N, T132I, K134R counted along it

B1: 31B4 (antibody, human IgG1, kappa, V domains shown)
VH: QIQLQESGPGLVRPTETLSLTCSVSGDSISQSSHYWAWIRQPPGKGPEWIGSVYFSSMTHYNPSLTSRVSISIDKAMNKFSLKVTSVTVADTATYYCARQALARVGAMNWFDPWGQGSLVTVSS
VL: DIIMTQSPESLPVSLGEGVTINCKSSQSVFFTSSNRSCLAWYQQKPGQSPKLLIYWASTRQSGVPDRFTGSGSGTDFSLTIAGLQVEDVAVYFCQQCHASPPTFGGGTRLELRR
notes: human-derived IgG1, kappa; clonally related to 26B9; also called MAB 31B4; hMAB 31B4
As for B1, the binding result is “no binding” in assay [1]; “no binding” in assay [2]; “no binding” with g1mIFN-α1; “no binding” with g1mIFN-α9; “binds” with g1 IFN-α10; “binds” with human IFN-α1 [3]. Moreover, the binding result with human IFN-α14, with human IFN-α4, in the assay with human IFN-α16, with human IFN-α10 and in the assay with human IFN-α21 was “binds” each time.

B2: 5D1 (antibody, human IgG1, kappa, V domains shown)
VH: EVQLVQAGAEVKAPGESLRISCKVSGYTFTSYWISWVRQIPGKGLEWMVKIDPRDSYTIYNPSFQGHVSISVDKSITTVYLQWSSLQASDTAIYYCVRHYLTQSLVDYFDHWGQGTLVAVSS
VL: DIQMTQSPSSLSASVGDSVTITCRASQSVSNYFHWYRQKPGKAPELLIYSASNLQTGVPSRFTGSGSGTECTLTITSLQPDDFATYYCQQTHGYPFTFGQGTKLDVRR
notes: human-derived IgG1, kappa; also called MAB 5D1; hMAB 5D1
Consider B2, for which the binding result in assay [1] is “no binding”; in assay [2], “no binding”; with g1mIFN-α9, “no binding”; in the assay with human IFN-α1 [4] it was “no binding”; with human IFN-α16, “binds”; in the assay with human IFN-α10, “binds”. The binding result with human IFN-α21 is reported as “binds”.
